Measurements: IntAct's records for PubMed 19001025

B1: Nucleolar protein 3 (Rattus norvegicus (Rat)), Q62881 (parent)
chain: MGNMQERPSETIDRERKRLVETLQADSGLLLDALVARGVLTGPEYEALDALPDAERRVRRLLLLVQSKGEAACQELLRCAQQTVSMPDPAWDWQHVGPGYRDRSYDPPCPGHWTPEAPSSGTTCPGLPRASEEEEIGGPEDSEAVQPRTPEEPELEAEATKGDEPDLEQEMEPEPEPEVEPEPEPEPEPEPEPEPEPEPEPEPEREPDFQEGDESEGCENT
partner: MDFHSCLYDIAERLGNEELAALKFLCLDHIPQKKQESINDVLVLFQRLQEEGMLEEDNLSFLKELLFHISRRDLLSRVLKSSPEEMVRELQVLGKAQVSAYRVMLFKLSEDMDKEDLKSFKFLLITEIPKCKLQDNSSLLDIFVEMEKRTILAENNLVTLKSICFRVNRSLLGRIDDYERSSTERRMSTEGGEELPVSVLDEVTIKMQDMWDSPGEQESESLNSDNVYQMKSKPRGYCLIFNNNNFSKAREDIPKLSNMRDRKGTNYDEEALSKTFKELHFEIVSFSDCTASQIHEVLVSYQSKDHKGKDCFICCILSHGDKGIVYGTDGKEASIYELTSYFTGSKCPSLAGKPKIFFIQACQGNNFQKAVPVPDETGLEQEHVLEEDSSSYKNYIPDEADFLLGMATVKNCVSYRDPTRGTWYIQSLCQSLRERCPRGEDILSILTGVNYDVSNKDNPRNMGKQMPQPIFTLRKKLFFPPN

Variants of: B1
Conditions: with casp8_rat Casp8, Q9JHX4

Variant	effect of a mutation on the interaction
MGNMQERPSETIDRERKRLVETLQADSGLLLDALVARGVLTGPEYEALDALPDAERRVRRLLLLVQSKGEAACQELLRCAQQTVSMPDPAWDWQHVGPGYRDRSYDPPCPGHWTPEAPSSGTTCPGLPRASEEEEIGGPEDSEAVQPRDPEEPELEAEATKGDEPDLEQEMEPEPEPEVEPEPEPEPEPEPEPEPEPEPEPEPEREPDFQEGDESEGCENT [T149D]	disrupting interaction
